Measured values reported in US20190361012A1 (published 2019).
Blank lines part the entries; values can stand above or below the molecule they belong to.

What was measured:
[1] = target: FBA6 protein expressed and purified from E. coli (Arabidopsis) (UniProt Q9SJQ9); assay: microscale thermophoresis (MST), FBA6 purified from E. coli
[2] = target: TIA1 protein (recombinant, purchased from Origene) (human) (UniProt P31483); assay: MST self-assembly, labelled TIA1 titrated with non-labeled TIA1, without 2′,3′-cAMP
[3] = target: TIA1 protein (recombinant, purchased from Origene) (human) (UniProt P31483); assay: MST self-assembly, labelled TIA1 titrated with non-labeled TIA1, in the presence of 500 µM 2′,3′-cAMP
[4] = target: the molecule itself; assay: MST self-assembly, labelled Rbp47b titrated with non-labeled Rbp47b, without 2′,3′-cAMP
Description: (§1) MST measurements were performed using a Monolith NT.115 instrument (NanoTemper, München, Germany). Capillaries were loaded into the instrument as sets of 13-16 point ligand titrations. […] Excitation was optimized by varying the LED power to yield emission intensities above 200 AU, corresponding to 10-50 nM labeled protein. Monolith power was set to 60%. Ligands [2′,3′-cAMP (Sigma A9376)] and [3′,5′-cAMP (Sigma A6885)] were dissolved in PBS. 0.5% Tween and premium coated capillaries were used to prevent sticking. […] MO Affinity Analysis software was used to analyze (Kd calculation) and visualize the data. Presented data are from 2-3 technical replicates.

[5] = target: the molecule itself; assay: MST self-assembly, labelled Rbp47b titrated with non-labeled Rbp47b, in the presence of 50 µM 2′,3′-cAMP
Description: as §1

Sequence of FBA6 protein expressed and purified from E. coli (Arabidopsis) (Q9SJQ9 whole entry): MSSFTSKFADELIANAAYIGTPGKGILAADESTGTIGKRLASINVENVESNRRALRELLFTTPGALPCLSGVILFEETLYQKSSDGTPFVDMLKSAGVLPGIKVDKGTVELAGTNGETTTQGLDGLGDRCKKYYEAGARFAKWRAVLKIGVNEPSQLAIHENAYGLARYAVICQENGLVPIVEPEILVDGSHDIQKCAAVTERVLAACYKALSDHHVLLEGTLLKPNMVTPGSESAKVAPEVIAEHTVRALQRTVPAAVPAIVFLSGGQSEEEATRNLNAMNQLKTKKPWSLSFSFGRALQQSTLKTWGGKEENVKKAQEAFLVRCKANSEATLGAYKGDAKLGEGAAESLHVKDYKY

Kd [1]: 200 nM
Molecule: L-Gly-L-Pro (peptide)

Molecule: TIA1 protein (recombinant, purchased from Origene) (from UniProt P31483 1-386)
Kd [2]: 36.3 nM
Kd [3]: 20.6 nM

B1: His6-Rbp47b (other, Arabidopsis)
chain: HHHHHHMQTTNGSDSTLATSGATPPNQQTPPPPQQWQQQQQQQQQWMAAMQYPPAAAMMMMQQQQMLMYPHQYVPYNQGPYQQHHPQLHQYGSYQQHQHQQHKAIDRGSGDDVKTLWVGDLLHWMDETYLHSCFSHTGEVSSVKVIRNKLTSQSEGYGFVEFLSRAAAEEVLQNYSGSVMPNSDQPFRINWASFSTGEKRAVENGPDLSVFVGDLSPDVTDVLLHETFSDRYPSVKSAKVVIDSNTGRSKGYGFVRFGDENERSRALTEMNGAYCSNRQMRVGIATPKRAIANQQQHSSQAVILAGGHGSNGSMGYGSQSDGESTNATIFVGGIDPDVIDEDLRQPFSQFGEVVSVKIPVGKGCGFVQFADRKSAEDAIESLNGTVIGKNTVRLSWGRSPNKQWRGDSGQQWNGGYSRGHGYNNGGGYANHHDSNNYHGEN
modifications: the labelled partner carries RED-NHS (amine reactive) dye; the titrated partner is non-labeled
notes: Cloned as His6-Rbp47b-GFP in E. coli; The fraction that had spontaneously lost GFP (His6-Rbp47b) was used for MST; In the self-assembly assay labelled Rbp47b was titrated with non-labeled Rbp47b; also called Rb47b
Kd [4]: 128 nM
Kd [5]: 8.9 nM
